# Experimental data taken from the RNAGym collection of RNA variant scans (doi:10.1021/acssynbio.7b00057).
# B1: Pistol ribozyme (parent)
# chain: GGGUCGUUGUUCCAUAAUCGCGUGGAUAUGGCACGCAAGUUUCUACCGGGCACCGUAAAUGUCCGACUGGAGCCGUUCGGGCGGCUAUAAACAGACCUCAGGCCCGAAGCGUGGCGGCACCUGCCGCCGGUGGUAAAAAAGAUCGGAAGAGCACACGUCU
# Variants of: B1
# Assay: aptazyme ON/OFF ratio, guanine; higher = stronger switching; co-transcriptional cleavage with and without guanine
row,Variant,aptazyme ON/OFF ratio
1,GGGUCGUUGCUGCAUAAUCGCGUGGAUAUGGCACGCAAGUUUCUACCGGGCACCGUAAAUGUCCGACUGGAGCCGUUCGGGCGGCUAUAAACAGACCUCAGGCCCGAAGCGUGGCGGCACCUGCCGCCGGUGGUAAAAAAGAUCGGAAGAGCACACGUCU [U10C C12G],1.36
2,GGGUCGUUGCUACAUAAUCGCGUGGAUAUGGCACGCAAGUUUCUACCGGGCACCGUAAAUGUCCGACUGGAGCCGUUCGGGCGGCUAUAAACAGACCUCAGGCCCGAAGCGUGGCGGCACCUGCCGCCGGUGGUAAAAAAGAUCGGAAGAGCACACGUCU [U10C C12A],1.51
3,GGGUCGUUGCUUCAUAAUCGCGUGGAUAUGGCACGCAAGUUUCUACCGGGCACCGUAAAUGUCCGACUGGAGCCGUUCGGGCGGCUAUAAACAGACCUCAGGCCCGAAGCGUGGCGGCACCUGCCGCCGGUGGUAAAAAAGAUCGGAAGAGCACACGUCU [U10C C12U],2.09
4,GGGUCGUUGCUAAAUAAUCGCGUGGAUAUGGCACGCAAGUUUCUACCGGGCACCGUAAAUGUCCGACUGGAGCCGUUCGGGCGGCUAUAAACAGACCUCAGGCCCGAAGCGUGGCGGCACCUGCCGCCGGUGGUAAAAAAGAUCGGAAGAGCACACGUCU [U10C C12A C13A],1.23
5,GGGUCGUUGCUAUAUAAUCGCGUGGAUAUGGCACGCAAGUUUCUACCGGGCACCGUAAAUGUCCGACUGGAGCCGUUCGGGCGGCUAUAAACAGACCUCAGGCCCGAAGCGUGGCGGCACCUGCCGCCGGUGGUAAAAAAGAUCGGAAGAGCACACGUCU [U10C C12A C13U],1.18
6,GGGUCGUUGCUAGAUAAUCGCGUGGAUAUGGCACGCAAGUUUCUACCGGGCACCGUAAAUGUCCGACUGGAGCCGUUCGGGCGGCUAUAAACAGACCUCAGGCCCGAAGCGUGGCGGCACCUGCCGCCGGUGGUAAAAAAGAUCGGAAGAGCACACGUCU [U10C C12A C13G],1.19
7,GGGUCGUUGCAAUAUAAUCGCGUGGAUAUGGCACGCAAGUUUCUACCGGGCACCGUAAAUGUCCGACUGGAGCCGUUCGGGCGGCUAUAAACAGACCUCAGGCCCGAAGCGUGGCGGCACCUGCCGCCGGUGGUAAAAAAGAUCGGAAGAGCACACGUCU [U10C U11A C12A C13U],1.35
8,GGGUCGUUGCAAAAUAAUCGCGUGGAUAUGGCACGCAAGUUUCUACCGGGCACCGUAAAUGUCCGACUGGAGCCGUUCGGGCGGCUAUAAACAGACCUCAGGCCCGAAGCGUGGCGGCACCUGCCGCCGGUGGUAAAAAAGAUCGGAAGAGCACACGUCU [U10C U11A C12A C13A],1.37
9,GGGUCGUUGCAAGAUAAUCGCGUGGAUAUGGCACGCAAGUUUCUACCGGGCACCGUAAAUGUCCGACUGGAGCCGUUCGGGCGGCUAUAAACAGACCUCAGGCCCGAAGCGUGGCGGCACCUGCCGCCGGUGGUAAAAAAGAUCGGAAGAGCACACGUCU [U10C U11A C12A C13G],1.36
10,GGGUCGUUGAGCUAUAAUCGCGUGGAUAUGGCACGCAAGUUUCUACCGGGCACCGUAAAUGUCCGACUGGAGCCGUUCGGGCGGCUAUAAACAGACCUCAGGCCCGAAGCGUGGCGGCACCUGCCGCCGGUGGUAAAAAAGAUCGGAAGAGCACACGUCU [U10A U11G C13U],1.37
11,GGGUCGUUGAGCGAUAAUCGCGUGGAUAUGGCACGCAAGUUUCUACCGGGCACCGUAAAUGUCCGACUGGAGCCGUUCGGGCGGCUAUAAACAGACCUCAGGCCCGAAGCGUGGCGGCACCUGCCGCCGGUGGUAAAAAAGAUCGGAAGAGCACACGUCU [U10A U11G C13G],1.19
12,GGGUCGUUGAGCAAUAAUCGCGUGGAUAUGGCACGCAAGUUUCUACCGGGCACCGUAAAUGUCCGACUGGAGCCGUUCGGGCGGCUAUAAACAGACCUCAGGCCCGAAGCGUGGCGGCACCUGCCGCCGGUGGUAAAAAAGAUCGGAAGAGCACACGUCU [U10A U11G C13A],1.33
13,GGGUCGUUGCUGGAUAAUCGCGUGGAUAUGGCACGCAAGUUUCUACCGGGCACCGUAAAUGUCCGACUGGAGCCGUUCGGGCGGCUAUAAACAGACCUCAGGCCCGAAGCGUGGCGGCACCUGCCGCCGGUGGUAAAAAAGAUCGGAAGAGCACACGUCU [U10C C12G C13G],1.09
14,GGGUCGUUGCUGUAUAAUCGCGUGGAUAUGGCACGCAAGUUUCUACCGGGCACCGUAAAUGUCCGACUGGAGCCGUUCGGGCGGCUAUAAACAGACCUCAGGCCCGAAGCGUGGCGGCACCUGCCGCCGGUGGUAAAAAAGAUCGGAAGAGCACACGUCU [U10C C12G C13U],1.35
15,GGGUCGUUGCUGAAUAAUCGCGUGGAUAUGGCACGCAAGUUUCUACCGGGCACCGUAAAUGUCCGACUGGAGCCGUUCGGGCGGCUAUAAACAGACCUCAGGCCCGAAGCGUGGCGGCACCUGCCGCCGGUGGUAAAAAAGAUCGGAAGAGCACACGUCU [U10C C12G C13A],1.24
16,GGGUCGUUGAGGAAUAAUCGCGUGGAUAUGGCACGCAAGUUUCUACCGGGCACCGUAAAUGUCCGACUGGAGCCGUUCGGGCGGCUAUAAACAGACCUCAGGCCCGAAGCGUGGCGGCACCUGCCGCCGGUGGUAAAAAAGAUCGGAAGAGCACACGUCU [U10A U11G C12G C13A],1.27
17,GGGUCGUUGAGGGAUAAUCGCGUGGAUAUGGCACGCAAGUUUCUACCGGGCACCGUAAAUGUCCGACUGGAGCCGUUCGGGCGGCUAUAAACAGACCUCAGGCCCGAAGCGUGGCGGCACCUGCCGCCGGUGGUAAAAAAGAUCGGAAGAGCACACGUCU [U10A U11G C12G C13G],1.42
18,GGGUCGUUGAGGUAUAAUCGCGUGGAUAUGGCACGCAAGUUUCUACCGGGCACCGUAAAUGUCCGACUGGAGCCGUUCGGGCGGCUAUAAACAGACCUCAGGCCCGAAGCGUGGCGGCACCUGCCGCCGGUGGUAAAAAAGAUCGGAAGAGCACACGUCU [U10A U11G C12G C13U],1.43

row,Variant,aptazyme ON/OFF ratio
1,GGGUCGUUGCUCCAUAAUCGCGUGGAUAUGGCACGCAAGUUUCUACCGGGCACCGUAAAUGUCCGACUGGAGCCGUUCGGGCGGCUAUAAACAGACCUCAGGCCCGAAGCGUGGCGGCACCUGCCGCCGGUGGUAAAAAAGAUCGGAAGAGCACACGUCU [U10C],3.69
2,GGGUCGUUGAGUUAUAAUCGCGUGGAUAUGGCACGCAAGUUUCUACCGGGCACCGUAAAUGUCCGACUGGAGCCGUUCGGGCGGCUAUAAACAGACCUCAGGCCCGAAGCGUGGCGGCACCUGCCGCCGGUGGUAAAAAAGAUCGGAAGAGCACACGUCU [U10A U11G C12U C13U],1.27
3,GGGUCGUUGAGUGAUAAUCGCGUGGAUAUGGCACGCAAGUUUCUACCGGGCACCGUAAAUGUCCGACUGGAGCCGUUCGGGCGGCUAUAAACAGACCUCAGGCCCGAAGCGUGGCGGCACCUGCCGCCGGUGGUAAAAAAGAUCGGAAGAGCACACGUCU [U10A U11G C12U C13G],1.24
4,GGGUCGUUGAGUAAUAAUCGCGUGGAUAUGGCACGCAAGUUUCUACCGGGCACCGUAAAUGUCCGACUGGAGCCGUUCGGGCGGCUAUAAACAGACCUCAGGCCCGAAGCGUGGCGGCACCUGCCGCCGGUGGUAAAAAAGAUCGGAAGAGCACACGUCU [U10A U11G C12U C13A],1.62
5,GGGUCGUUGAGUCAUAAUCGCGUGGAUAUGGCACGCAAGUUUCUACCGGGCACCGUAAAUGUCCGACUGGAGCCGUUCGGGCGGCUAUAAACAGACCUCAGGCCCGAAGCGUGGCGGCACCUGCCGCCGGUGGUAAAAAAGAUCGGAAGAGCACACGUCU [U10A U11G C12U],1.52
6,GGGUCGUUGAGACAUAAUCGCGUGGAUAUGGCACGCAAGUUUCUACCGGGCACCGUAAAUGUCCGACUGGAGCCGUUCGGGCGGCUAUAAACAGACCUCAGGCCCGAAGCGUGGCGGCACCUGCCGCCGGUGGUAAAAAAGAUCGGAAGAGCACACGUCU [U10A U11G C12A],1.13
7,GGGUCGUUGAGGCAUAAUCGCGUGGAUAUGGCACGCAAGUUUCUACCGGGCACCGUAAAUGUCCGACUGGAGCCGUUCGGGCGGCUAUAAACAGACCUCAGGCCCGAAGCGUGGCGGCACCUGCCGCCGGUGGUAAAAAAGAUCGGAAGAGCACACGUCU [U10A U11G C12G],1.55
8,GGGUCGUUGCACCAUAAUCGCGUGGAUAUGGCACGCAAGUUUCUACCGGGCACCGUAAAUGUCCGACUGGAGCCGUUCGGGCGGCUAUAAACAGACCUCAGGCCCGAAGCGUGGCGGCACCUGCCGCCGGUGGUAAAAAAGAUCGGAAGAGCACACGUCU [U10C U11A],1.47
9,GGGUCGUUGCUUGAUAAUCGCGUGGAUAUGGCACGCAAGUUUCUACCGGGCACCGUAAAUGUCCGACUGGAGCCGUUCGGGCGGCUAUAAACAGACCUCAGGCCCGAAGCGUGGCGGCACCUGCCGCCGGUGGUAAAAAAGAUCGGAAGAGCACACGUCU [U10C C12U C13G],1.1
10,GGGUCGUUGCUUUAUAAUCGCGUGGAUAUGGCACGCAAGUUUCUACCGGGCACCGUAAAUGUCCGACUGGAGCCGUUCGGGCGGCUAUAAACAGACCUCAGGCCCGAAGCGUGGCGGCACCUGCCGCCGGUGGUAAAAAAGAUCGGAAGAGCACACGUCU [U10C C12U C13U],1.21
11,GGGUCGUUGCUUAAUAAUCGCGUGGAUAUGGCACGCAAGUUUCUACCGGGCACCGUAAAUGUCCGACUGGAGCCGUUCGGGCGGCUAUAAACAGACCUCAGGCCCGAAGCGUGGCGGCACCUGCCGCCGGUGGUAAAAAAGAUCGGAAGAGCACACGUCU [U10C C12U C13A],1.13
12,GGGUCGUUGCUCGAUAAUCGCGUGGAUAUGGCACGCAAGUUUCUACCGGGCACCGUAAAUGUCCGACUGGAGCCGUUCGGGCGGCUAUAAACAGACCUCAGGCCCGAAGCGUGGCGGCACCUGCCGCCGGUGGUAAAAAAGAUCGGAAGAGCACACGUCU [U10C C13G],1.05
13,GGGUCGUUGCUCUAUAAUCGCGUGGAUAUGGCACGCAAGUUUCUACCGGGCACCGUAAAUGUCCGACUGGAGCCGUUCGGGCGGCUAUAAACAGACCUCAGGCCCGAAGCGUGGCGGCACCUGCCGCCGGUGGUAAAAAAGAUCGGAAGAGCACACGUCU [U10C C13U],1.08
14,GGGUCGUUGCUCAAUAAUCGCGUGGAUAUGGCACGCAAGUUUCUACCGGGCACCGUAAAUGUCCGACUGGAGCCGUUCGGGCGGCUAUAAACAGACCUCAGGCCCGAAGCGUGGCGGCACCUGCCGCCGGUGGUAAAAAAGAUCGGAAGAGCACACGUCU [U10C C13A],1.06
15,GGGUCGUUGCAACAUAAUCGCGUGGAUAUGGCACGCAAGUUUCUACCGGGCACCGUAAAUGUCCGACUGGAGCCGUUCGGGCGGCUAUAAACAGACCUCAGGCCCGAAGCGUGGCGGCACCUGCCGCCGGUGGUAAAAAAGAUCGGAAGAGCACACGUCU [U10C U11A C12A],1.48
16,GGGUCGUUGAGAAAUAAUCGCGUGGAUAUGGCACGCAAGUUUCUACCGGGCACCGUAAAUGUCCGACUGGAGCCGUUCGGGCGGCUAUAAACAGACCUCAGGCCCGAAGCGUGGCGGCACCUGCCGCCGGUGGUAAAAAAGAUCGGAAGAGCACACGUCU [U10A U11G C12A C13A],1.04
17,GGGUCGUUGAGAUAUAAUCGCGUGGAUAUGGCACGCAAGUUUCUACCGGGCACCGUAAAUGUCCGACUGGAGCCGUUCGGGCGGCUAUAAACAGACCUCAGGCCCGAAGCGUGGCGGCACCUGCCGCCGGUGGUAAAAAAGAUCGGAAGAGCACACGUCU [U10A U11G C12A C13U],1.46
18,GGGUCGUUGAGAGAUAAUCGCGUGGAUAUGGCACGCAAGUUUCUACCGGGCACCGUAAAUGUCCGACUGGAGCCGUUCGGGCGGCUAUAAACAGACCUCAGGCCCGAAGCGUGGCGGCACCUGCCGCCGGUGGUAAAAAAGAUCGGAAGAGCACACGUCU [U10A U11G C12A C13G],1.23
